The values below come from publication PMC11141937 (2024).

In experiment [1] the target is T1, SARS-CoV-2 WT (WH01) S protein ectodomain (SARS-CoV-2, UniProt P0DTC2 14-1213). The experiment can be described thus: BLI. On the technique in general: BLI is a label-free optical method that tracks binding on a fibre tip over time.
In experiment [2] the target is SARS-CoV-2 WT (WH01) S protein on S-293T cells (SARS-CoV-2, UniProt P0DTC2). The experiment can be described thus: FACS. A general note: In flow cytometry, cells or beads pass a laser one at a time.
Another experiment concerns the target WT S2. Kind of experiment: ELISA. A general note: In an ELISA, binding on a coated surface is turned into a signal by an enzyme label.
Another experiment deals with WT NTD. The experiment can be described thus: ELISA.
For experiment [3], the target named is RBD of SARS-CoV-2 WT S protein (SARS-CoV-2, UniProt P0DTC2). Kind of experiment: ELISA.
For experiment [4], the target named is S1 of SARS-CoV-2 WT S protein (SARS-CoV-2). The experiment can be described thus: ELISA.
For experiment [5], the target named is T1, SARS-CoV-2 WT (WH01) S protein …. The experiment can be described thus: ELISA.

Usually Kd stands for the equilibrium constant for the complex coming apart. Low values mean a tighter complex, high ones a looser complex. In general, EC50 refers to the concentration that produces a half-maximal response. The low end stands for greater potency, the high end for weaker potency.

B1: O5C2 mAb (antibody, V domains shown)
VH: EVQLVESGGGLIQPGGSLRLSCAASGIIVSRNYMSWVRQAPGKGLEWVSILYAGGSSFYAEPVQGRFTVSRDNSKNTLFLEMNSLRVEDTAVYYCARDLQWGIDIWGQGAMVTVSS
VL: DIQMTQTPPSLSASVGDRVSISCRASQSTGSWLAWYQQKPGKAPKLLIYKTSSLESGVPSRFSGSGSGTEFTLTISSLQPDDVATYYCQHYDTYSSTFGQGTKVEIK
Molecule B1 gave a dissociation constant Kd in experiment [1] of 0.865 nM. Also, the EC50 in experiment [2] was 0.177 nM; with WT S2 it was greater than 1000 nM; in the experiment with WT NTD it was greater than 1000 nM; in experiment [3], 0.018 nM; in experiment [4], 0.017 nM; in experiment [5] it was 0.024 nM.
